In this test the target is human IL-1R3 on cells (SK-MEL-30, A549, HEK-293 and other human cell lines) (human) (UniProt Q9NPH3). Kind of test: flow cytometry on SK-MEL-30 cells (high IL-1R3 expression), 1:2 dilution series from 20 µg/ml. (In flow cytometry, cells or beads pass a laser one at a time.)

From US20230383000A1 come the findings set out here.

human IL-1R3 on cells (SK-MEL-30, A549, HEK-293 and other human cell lines) (human), sequence (Q9NPH3 21-570): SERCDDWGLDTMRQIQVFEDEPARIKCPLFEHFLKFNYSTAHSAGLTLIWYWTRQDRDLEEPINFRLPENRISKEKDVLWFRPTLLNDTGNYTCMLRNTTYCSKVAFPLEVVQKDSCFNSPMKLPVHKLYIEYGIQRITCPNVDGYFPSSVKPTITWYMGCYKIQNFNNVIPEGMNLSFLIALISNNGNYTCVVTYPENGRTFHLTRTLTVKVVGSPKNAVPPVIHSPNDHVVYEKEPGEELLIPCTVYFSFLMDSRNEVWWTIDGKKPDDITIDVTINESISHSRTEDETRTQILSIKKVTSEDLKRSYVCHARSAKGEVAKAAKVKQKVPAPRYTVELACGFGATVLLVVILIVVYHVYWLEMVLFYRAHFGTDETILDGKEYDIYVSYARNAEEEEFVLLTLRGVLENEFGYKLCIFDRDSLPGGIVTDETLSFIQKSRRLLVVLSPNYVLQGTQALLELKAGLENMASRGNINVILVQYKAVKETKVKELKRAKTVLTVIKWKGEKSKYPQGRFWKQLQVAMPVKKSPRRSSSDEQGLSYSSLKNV

B1: MAB-16-0030 (humanized anti-IL-1R3 IgG1-LALA antibody) (antibody, from another filing, V domains shown)
VH: EVQLEESGGRLVQPGTSLRLSCAVSGFSLSSYDMSWVRQAPGKGLEWVSTIYIGGTTAYASWPKGRFTISKTNSKNTLYLQMNSLRAEDTAVYFCARLQGANYYNSLALWGQGTLVTVSS
VL: DVQMTQSPSSLSASVGDRVTITCQASQSIYSFLSWYQQKPGQAPKLLIYAASDLESGVPSRFSGSGSGTDFTLTISSLQPEDFATYYCQCNYIIDYGAFGQGTKVVIKR
Consider B1, for which the EC50 (commonly the concentration that produces a half-maximal response) is 0.307 µg/mL.
